Results: patent publication US20250333481A1

Biological target: chimeric receptor consisting of extracellular domain of BDNF receptor TrkB and transmembrane domain and cytoplasmic domain of thrombopoietin receptor c-Mpl
Assay: cell-based or functional assay

EC50, cell proliferation of BaF/TrkB·c-Mpl chimera cells (MTS, absorbance at 490 nM): 1.19 nM
Substance: recombinant wild-type hBDNF (Abcam) (from UniProt P23560 129-247) (ligand)
